Tests used:
Details in all cases: remark: other sources report otherwise
[1] = molecular target: s127H1-t2-cl18long; test: SEC-MALS of trimer with Fab fragments; value in brackets is the theoretical one
[2] = molecular target: s127H1-t2-cl18long; test: Kd app from steady state Octet (biolayer interferometry), antibody immobilized
[3] = molecular target: UFV150135 (influenza A virus H1 A/California/07/2009)
[4] = molecular target: UFV150124 (influenza A virus H1 A/Brisbane/59/2007)
[5] = molecular target: UFV150125 (influenza A virus H1 A/Brisbane/59/2007)
[6] = molecular target: UFV150134 (influenza A virus H1 A/California/07/2009)

Binder | Mw of trimer protein complex with CRF6261 [1] [kDa] | Kd [2] [nM] | CR6261 binding AlphaLISA (counts) [3] [counts] | CR6261 binding AlphaLISA (counts) [4] [counts] | CR6261 binding AlphaLISA (counts) [5] [counts] | CR6261 binding AlphaLISA (counts) [6] [counts]
Fab fragment of CR6261 (Fab, V domains shown) VH: EVQLVESGAEVKKPGSSVKVSCKASGGPFRSYAISWVRQAPGQGPEWMGGIIPIFGTTKYAPKFQGRVTITADDFAGTVYMELSSLRSEDTAMYYCAKHMGYQVRETMDVWGKGTTVTVSS VL: QSVLTQPPSVSAAPGQKVTISCSGSSSNIGNDYVSWYQQLPGTAPKLLIYDNNKRPSGIPDRFSGSKSGTSATLGITGLQTGDEANYYCATWDRRPTAYVVFGGGTKLTVLG | 216 |  |  |  |  | 
CR6261 (antibody, V domains shown) VH: EVQLVESGAEVKKPGSSVKVSCKASGGPFRSYAISWVRQAPGQGPEWMGGIIPIFGTTKYAPKFQGRVTITADDFAGTVYMELSSLRSEDTAMYYCAKHMGYQVRETMDVWGKGTTVTVSS VL: QSVLTQPPSVSAAPGQKVTISCSGSSSNIGNDYVSWYQQLPGTAPKLLIYDNNKRPSGIPDRFSGSKSGTSATLGITGLQTGDEANYYCATWDRRPTAYVVFGGGTKLTVLG |  | 0.5 | 625000 | 572000 | 475000 | 587000

Reference: patent publication US20170189519A1
